Data reported in article PMC7598476.

How the values were obtained:
[1] = target: biotinylated monomeric hMPV B2 F protein (human metapneumovirus (subgroup B2)); experiment: BLI
[2] = target: trypsinized trimeric hMPV B2 F (human metapneumovirus (subgroup B2)); experiment: SEC

Kd [1] | Substance | stoichiometry N [2]
0.43 µM | 101F Fab | –
– | trypsinized trimeric hMPV B2 F (natural protein) | 3
